Measured values published in the supplement of paper PMC6379048.

Experiments:
Experiment in all cases: EC50 of free RNA motif oligo competing protein binding to immobilised probe
HNRNPU = HNRNPU (UniProt Q00839)
Outline: (§1)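 Free RNA oligos (0 nM to 30 μM) competed for 1 h at 4°C in HEK293-FT lysate (2.5 mg protein/well) before a 30 min, 4°C pulldown with the same oligos on NHS-Sepharose beads. Bound proteins were quantified by label-free LC-MS/MS and normalised to the control. Kd was found by multiplying EC50, from a four-parameter log-logistic fit, by a protein-dependent depletion factor.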

RPS12 = RPS12 (UniProt P25398)
Outline: as §1

MRPL49 = MRPL49 (UniProt Q13405)
Outline: as §1

MRPL48 = MRPL48 (UniProt Q96GC5)
Outline: as §1

MRPL37 = MRPL37 (UniProt Q9BZE1)
Outline: as §1

RPS18 = RPS18 (UniProt P62269)
Outline: as §1

ZRANB2 = target: T1, ZRANB2 (UniProt O95218)
T1 sequence: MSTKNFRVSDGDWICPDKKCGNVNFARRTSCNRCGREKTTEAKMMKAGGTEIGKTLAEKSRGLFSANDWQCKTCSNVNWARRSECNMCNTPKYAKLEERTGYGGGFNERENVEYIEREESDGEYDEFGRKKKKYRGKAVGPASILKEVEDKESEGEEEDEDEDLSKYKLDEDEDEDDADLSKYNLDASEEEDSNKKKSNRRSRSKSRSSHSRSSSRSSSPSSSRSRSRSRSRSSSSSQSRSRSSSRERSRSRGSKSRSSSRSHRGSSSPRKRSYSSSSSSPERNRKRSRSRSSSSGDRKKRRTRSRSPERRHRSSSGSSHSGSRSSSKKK
Outline: as §1

PINX1 = target: T2, PINX1 (UniProt Q96BK5)
T2 sequence: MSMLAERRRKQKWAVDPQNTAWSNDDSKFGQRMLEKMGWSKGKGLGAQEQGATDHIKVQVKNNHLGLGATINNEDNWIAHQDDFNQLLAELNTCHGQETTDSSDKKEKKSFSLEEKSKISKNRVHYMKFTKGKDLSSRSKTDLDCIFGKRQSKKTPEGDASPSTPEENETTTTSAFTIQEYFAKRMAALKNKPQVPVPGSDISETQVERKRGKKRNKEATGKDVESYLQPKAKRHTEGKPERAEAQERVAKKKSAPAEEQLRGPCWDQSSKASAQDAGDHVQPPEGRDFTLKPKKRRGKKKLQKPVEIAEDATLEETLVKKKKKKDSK
Outline: as §1

TIAL1 = target: T3, TIAL1 (UniProt Q01085)
T3 sequence: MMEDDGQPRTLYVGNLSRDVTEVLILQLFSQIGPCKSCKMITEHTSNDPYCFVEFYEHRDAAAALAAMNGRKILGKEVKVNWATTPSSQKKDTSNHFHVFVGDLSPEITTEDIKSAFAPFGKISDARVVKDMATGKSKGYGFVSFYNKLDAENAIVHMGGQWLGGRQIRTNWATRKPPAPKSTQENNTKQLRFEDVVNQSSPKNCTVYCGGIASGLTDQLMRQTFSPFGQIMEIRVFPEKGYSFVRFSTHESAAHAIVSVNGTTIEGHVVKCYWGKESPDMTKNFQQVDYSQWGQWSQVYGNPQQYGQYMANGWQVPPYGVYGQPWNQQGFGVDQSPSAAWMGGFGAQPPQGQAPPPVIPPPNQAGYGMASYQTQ
Outline: as §1

ATIC = ATIC (UniProt P31939)
Outline: as §1

ERAL1 = target: T4, ERAL1 (UniProt O75616)
T4 sequence: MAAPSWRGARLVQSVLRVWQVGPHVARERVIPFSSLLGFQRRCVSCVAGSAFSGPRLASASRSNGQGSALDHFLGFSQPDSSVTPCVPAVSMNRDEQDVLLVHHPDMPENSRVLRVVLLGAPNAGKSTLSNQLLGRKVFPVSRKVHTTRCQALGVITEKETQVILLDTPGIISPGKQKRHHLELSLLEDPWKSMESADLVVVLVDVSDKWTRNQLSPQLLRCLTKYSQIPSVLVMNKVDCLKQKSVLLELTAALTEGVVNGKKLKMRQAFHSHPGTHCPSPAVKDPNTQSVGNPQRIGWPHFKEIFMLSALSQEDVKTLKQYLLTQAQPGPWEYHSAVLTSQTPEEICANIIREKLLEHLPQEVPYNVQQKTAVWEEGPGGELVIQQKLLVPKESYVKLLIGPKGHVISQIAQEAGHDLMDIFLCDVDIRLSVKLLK
Outline: as §1

HNRNPA2B1 = HNRNPA2B1 (UniProt P22626)
Outline: as §1

Sequence of HNRNPU (Q00839 whole entry): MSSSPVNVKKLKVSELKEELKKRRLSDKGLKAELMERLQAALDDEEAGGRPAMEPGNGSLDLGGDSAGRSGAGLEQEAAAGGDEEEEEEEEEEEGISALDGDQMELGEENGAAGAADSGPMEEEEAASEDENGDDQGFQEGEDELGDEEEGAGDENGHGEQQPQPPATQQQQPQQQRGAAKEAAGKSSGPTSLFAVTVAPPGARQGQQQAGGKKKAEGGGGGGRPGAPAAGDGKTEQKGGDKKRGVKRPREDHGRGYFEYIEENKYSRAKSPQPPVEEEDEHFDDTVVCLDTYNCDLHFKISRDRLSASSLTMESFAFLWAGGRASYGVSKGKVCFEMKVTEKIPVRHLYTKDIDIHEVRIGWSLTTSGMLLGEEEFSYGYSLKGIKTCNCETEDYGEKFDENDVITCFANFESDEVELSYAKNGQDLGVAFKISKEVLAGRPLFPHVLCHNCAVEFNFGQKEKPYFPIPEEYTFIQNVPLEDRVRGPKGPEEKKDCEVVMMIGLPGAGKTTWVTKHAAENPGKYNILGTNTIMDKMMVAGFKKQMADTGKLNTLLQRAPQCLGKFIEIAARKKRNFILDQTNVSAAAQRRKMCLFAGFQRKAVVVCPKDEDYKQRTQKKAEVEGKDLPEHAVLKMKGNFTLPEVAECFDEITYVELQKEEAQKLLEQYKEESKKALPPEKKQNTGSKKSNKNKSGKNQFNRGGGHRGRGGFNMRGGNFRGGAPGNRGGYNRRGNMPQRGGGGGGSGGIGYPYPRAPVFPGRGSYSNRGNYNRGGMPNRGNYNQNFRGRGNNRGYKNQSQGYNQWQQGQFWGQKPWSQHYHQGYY
Sequence of HNRNPA2B1 (P22626 whole entry): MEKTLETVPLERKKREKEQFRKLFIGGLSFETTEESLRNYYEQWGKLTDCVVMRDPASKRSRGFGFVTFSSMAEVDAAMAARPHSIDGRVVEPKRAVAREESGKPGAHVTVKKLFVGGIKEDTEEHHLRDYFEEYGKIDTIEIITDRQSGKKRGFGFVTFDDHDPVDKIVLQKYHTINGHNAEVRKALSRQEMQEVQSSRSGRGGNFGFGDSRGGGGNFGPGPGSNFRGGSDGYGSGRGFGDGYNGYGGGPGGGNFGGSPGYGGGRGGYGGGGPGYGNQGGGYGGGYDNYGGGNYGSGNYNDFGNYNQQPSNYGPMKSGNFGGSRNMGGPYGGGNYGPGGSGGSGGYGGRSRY
Sequence of ATIC (P31939 whole entry, looked up): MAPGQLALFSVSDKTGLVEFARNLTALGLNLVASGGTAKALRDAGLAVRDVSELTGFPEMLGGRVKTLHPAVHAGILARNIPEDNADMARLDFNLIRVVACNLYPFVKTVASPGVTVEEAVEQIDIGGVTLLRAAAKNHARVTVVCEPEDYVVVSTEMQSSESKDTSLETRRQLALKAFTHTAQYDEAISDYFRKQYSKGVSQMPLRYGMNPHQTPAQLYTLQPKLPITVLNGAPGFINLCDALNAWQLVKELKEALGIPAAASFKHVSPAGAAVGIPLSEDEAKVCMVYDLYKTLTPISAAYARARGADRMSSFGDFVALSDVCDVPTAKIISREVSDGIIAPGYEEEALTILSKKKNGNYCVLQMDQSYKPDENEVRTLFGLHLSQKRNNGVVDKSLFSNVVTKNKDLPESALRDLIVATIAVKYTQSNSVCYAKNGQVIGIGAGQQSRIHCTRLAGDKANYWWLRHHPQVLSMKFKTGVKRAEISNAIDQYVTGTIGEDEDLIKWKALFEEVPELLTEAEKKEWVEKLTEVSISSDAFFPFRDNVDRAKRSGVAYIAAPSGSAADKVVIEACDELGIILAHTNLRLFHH

Sequence: CUGUCCU
- EC50 (HNRNPU): 378 nM
- EC50 (RPS12): 392 nM
- EC50 (MRPL49): 109 nM
- EC50 (MRPL48): 177 nM
- EC50 (MRPL37): 245 nM
- EC50 (RPS18): 89.4 nM

Sequence: AAUAAA
- EC50 (ZRANB2): 1900 nM
- EC50 (PINX1): 2130 nM
- EC50 (TIAL1): 546 nM

Sequence: UAUUUAU
- EC50 (ATIC): 804 nM
- EC50 (ERAL1): 27.8 nM
- EC50 (HNRNPA2B1): 7320 nM
